Data: US20250000991A1 (Eli Lilly, published 2025)
Numbering of substitutions follows the chain as printed.

B1: enfortumab (antibody, V domains shown)
VH: EVQLVESGGGLVQPGGSLRLSCAASGFTFSSYNMNWVRQAPGKGLEWVSYISSSSSTIYYADSVKGRFTISRDNAKNSLSLQMNSLRDEDTAVYYCARAYYYGMDVWGQGTTVTVSS
VL: DIQMTQSPSSVSASVGDRVTITCRASQGISGWLAWYQQKPGKAPKFLIYAASTLQSGVPSRFSGSGSGTDFTLTISSLQPEDFATYYCQQANSFPPTFGGGTKVEIKR
B2: Ab8 ADC (Ab8 conjugated as in Formula XI, DAR of 8) (antibody, human IgG1, lambda, L234A L235A, V domains shown)
VH: QVQLVQSGAEVKKPGASVKVSCKASGYTFTSYYIHWVRQAPGQGLEWMGIINPISGRTSSAQKFQGRVTMTRDTSTSTVYMELSSLRSEDTAVYYCAKEGVGGELLRAFDIWGQGTLVTVSS
VL: QSVLTQPPSVSEAPRQRVTISCSGSSSNIGNNAVNWYQQLPGKAPKLLIYYDDLLPSGVSDRFSGSKSGTSASLAISGLQSEDEADYYCAAWDDSLNGFVFGGGTKLTVLG
modifications: camptothecin analog linker-payload of Formula XI on cysteine thiols after full reduction, DAR of 8 per antibody; positions not given
notes: Antibody-drug conjugate of Ab8; also called Ab8 (ADC column)
B3: Ab7 ADC (Ab7 conjugated as in Formula XI, DAR of 8) (antibody, human IgG1, lambda, L234A L235A, V domains shown)
VH: QVQLVQSGAEVKKPGASVKVSCKASGYTFTNYYMHWVRQAPGQGLEWMGIINPSSGSASYAQKFQGRVTMTRDTSTSTVYMELSSLRSEDTAVYYCAREGVGRDILQAFDIWGQGTLVTVSS
VL: B2 VL with F99H
modifications: camptothecin analog linker-payload of Formula XI on cysteine thiols after full reduction, DAR of 8 per antibody; positions not given
notes: Antibody-drug conjugate of Ab7; also called Ab7 (ADC column)
B4: Ab2 (antibody, human IgG1, kappa, L234A L235A, V domains shown)
VH: EVQLVESGGGLVQPGGSLRLSCAASGFTFSSYDMHWVRQATGKGLEWVSAIGTVGDTYYPGSVKGRFTISRENAKNSLYLQMNSLRAGDTAVYYCAREWNGMDVWGQGTTVTVSS
VL: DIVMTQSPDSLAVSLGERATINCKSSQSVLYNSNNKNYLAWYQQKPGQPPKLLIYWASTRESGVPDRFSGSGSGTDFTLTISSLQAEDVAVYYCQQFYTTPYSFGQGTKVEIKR
notes: Unconjugated antibody; also called Antibody 2; nectin-4 antibody Ab2
B5: Ab2 ADC (Ab2 conjugated as in Formula XI, DAR of 8) (antibody, human IgG1, kappa, L234A L235A, V domains shown)
VH: B4 VH
VL: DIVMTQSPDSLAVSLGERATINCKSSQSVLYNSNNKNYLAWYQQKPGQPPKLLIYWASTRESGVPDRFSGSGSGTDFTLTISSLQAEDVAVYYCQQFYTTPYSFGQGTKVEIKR
modifications: camptothecin analog linker-payload of Formula XI on cysteine thiols after full reduction, DAR of 8 per antibody; positions not given
notes: Antibody-drug conjugate of Ab2; also called Ab2 (ADC column)
B6: Ab1a ADC (Ab1a conjugated as in Formula XI, DAR of 8) (antibody, human IgG1, kappa, L234A L235A, V domains shown)
VH: QVQLVQSGAQVKKPGASVKVSCKASGYTFTGYYIHWVRQAPGQGLEWMGWINPNSGGTNYAQKFQGRVTMTRDTSISTAYMELSRLRSDDTAVYFCAREDWDFDYWGQGTLVTVSS
VL: EIVLTQSPGTLSLSPGERATLSCRTSQSVSSSYLAWYQQKPGQAPRLLIYGASNRATDIPDRFSGSGSGTDFTLTINRLEPEDFAVYYCQQYGSSPITFGQGTRLEIKR
modifications: camptothecin analog linker-payload of Formula XI on cysteine thiols after full reduction, DAR of 8 per antibody; positions not given
notes: Antibody-drug conjugate of Ab1a; also called Ab1a (ADC column)
B7: Ab3 ADC (Ab3 conjugated as in Formula XI, DAR of 8) (antibody, human IgG1, kappa, L234A L235A, V domains shown)
VH: EVQLVESGGGLVKPGGSLRLSCAASGFNLNHYNMNWVRQAPGKGLEWVSSVSSGGGFRYYADSVRGRFTISRDNAKNSLYLQMNSLRAEDTAVYYCARGAVFHDAFDIWGQGTLVTVSS
VL: DIQLTQSPSFLSASVGDRVTITCRASQDISSYLAWYQQKPGKAPKLLIYVASTLQSGVPSRFSGSGSGTEFTLTISSLQPEDFATYYCQQINSYPFTFGQGTKVEIKR
modifications: camptothecin analog linker-payload of Formula XI on cysteine thiols after full reduction, DAR of 8 per antibody; positions not given
notes: Antibody-drug conjugate of Ab3; also called Ab3 (ADC column)
B8: Ab5 ADC (Ab5 conjugated as in Formula XI, DAR of 8) (antibody, human IgG1, kappa, L234A L235A, V domains shown)
VH: QVQLVQSGAEVKKPGASVKVSCKASGYTFTSYYVHWVRQAPGQGLEWMGIINPSIISTSYAQKFQARVTMTRDTSTSTVYMELSSLRSEDTAVYYCARGLNFDAFDIWGQGTLVTVSS
VL: B7 VL with D28G, V50A, I91L, S93N
modifications: camptothecin analog linker-payload of Formula XI on cysteine thiols after full reduction, DAR of 8 per antibody; positions not given
notes: Antibody-drug conjugate of Ab5; also called Ab5 (ADC column)

Legend:
[1] = biological target: T1, human Nectin-4-eGFP on T24 cells (clone 3) (human, UniProt Q96NY8 32-510); experiment: cell-based or functional assay
T1 sequence: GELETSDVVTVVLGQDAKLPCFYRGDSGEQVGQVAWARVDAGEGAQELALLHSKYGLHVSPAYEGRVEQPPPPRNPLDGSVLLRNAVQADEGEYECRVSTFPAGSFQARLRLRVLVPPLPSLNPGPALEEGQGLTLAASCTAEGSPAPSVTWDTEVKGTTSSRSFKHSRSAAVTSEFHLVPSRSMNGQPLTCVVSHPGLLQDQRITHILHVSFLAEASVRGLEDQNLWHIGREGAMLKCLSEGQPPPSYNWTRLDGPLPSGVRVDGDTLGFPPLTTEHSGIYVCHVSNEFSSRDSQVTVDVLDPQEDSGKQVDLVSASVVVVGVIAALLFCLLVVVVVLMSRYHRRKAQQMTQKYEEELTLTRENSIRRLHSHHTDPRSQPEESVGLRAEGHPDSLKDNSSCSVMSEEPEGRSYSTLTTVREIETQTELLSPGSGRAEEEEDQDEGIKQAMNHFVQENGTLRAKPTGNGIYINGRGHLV

human nectin-4 on cells [2] = biological target: T2, human nectin-4 on cells (human, UniProt Q96NY8 32-510); experiment: flow cytometry, NCI-H1781 cells (low endogenous nectin-4)
T2 construct: also called Nectin-4 receptor
T2 sequence: T1 sequence

human nectin-4 on cells [3] = biological target: T2, human nectin-4 on cells; experiment: flow cytometry, SUM190PT cells (high endogenous nectin-4)
human nectin-4 on cells [4] = biological target: T2, human nectin-4 on cells; experiment: flow cytometry, differentiated normal human epidermal keratinocytes (HEKα)
human nectin-4 on cells [5] = biological target: T2, human nectin-4 on cells; experiment: cell-based or functional assay
[6] = biological target: T3, recombinant HIS-tagged human nectin-4 (Acro Biosystems Cat. No. NE4-H52H3) (human, UniProt Q96NY8 32-349); experiment: SPR Biacore 8K+, ADC captured via anti-human Fc, nectin-4 analyte, 37 C;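 further: Nectin-4 injected over captured ADC at 0 to 600 nM for 2 min association, then 10 min dissociation, with a reference flow cell lacking ADC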
T3 construct: Bought protein; not shown: HIS tag
T3 sequence: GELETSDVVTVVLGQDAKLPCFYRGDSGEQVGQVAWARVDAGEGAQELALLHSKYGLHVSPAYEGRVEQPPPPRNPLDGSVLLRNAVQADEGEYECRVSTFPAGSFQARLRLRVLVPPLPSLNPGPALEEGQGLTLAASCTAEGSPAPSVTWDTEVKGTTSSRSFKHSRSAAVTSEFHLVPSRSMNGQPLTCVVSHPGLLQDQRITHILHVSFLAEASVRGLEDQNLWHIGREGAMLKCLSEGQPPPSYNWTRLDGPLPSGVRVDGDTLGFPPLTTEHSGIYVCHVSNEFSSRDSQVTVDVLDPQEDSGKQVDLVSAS

[7] = biological target: T4, recombinant HIS-tagged cyno nectin-4 (Acro Biosystems Cat. No. NE4-C52H4) (cyno, UniProt A0A2K5WES1 32-349); experiment: as above
T4 construct: Bought protein; HIS tag not described
T4 sequence: T3 sequence with V39A, I230V

[8] = biological target: T5, recombinant HIS-tagged rat nectin-4 (R&D Systems Cat. No. 9997-N4-050) (rat, UniProt D3ZET1 31-348); experiment: as above
T5 construct: Bought protein; HIS tag not described
T5 sequence: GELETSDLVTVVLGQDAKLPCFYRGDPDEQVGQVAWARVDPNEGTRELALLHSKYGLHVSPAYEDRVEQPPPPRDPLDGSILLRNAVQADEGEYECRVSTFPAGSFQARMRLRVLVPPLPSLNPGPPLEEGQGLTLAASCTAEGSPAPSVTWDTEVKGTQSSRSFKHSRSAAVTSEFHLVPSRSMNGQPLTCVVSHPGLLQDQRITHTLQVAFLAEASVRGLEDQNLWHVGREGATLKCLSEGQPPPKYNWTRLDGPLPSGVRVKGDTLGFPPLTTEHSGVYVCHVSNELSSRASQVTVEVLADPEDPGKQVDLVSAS

[9] = biological target: T3, recombinant HIS-tagged human nectin-4 …; experiment: SPR Biacore 8K+, ADC captured via anti-human Fc, nectin-4 analyte, 37 C; replicate 1 of 2
[10] = biological target: T3, recombinant HIS-tagged human nectin-4 …; experiment: SPR Biacore 8K+, ADC captured via anti-human Fc, nectin-4 analyte, 37 C; replicate 2 of 2

Binder | % activity (max GFP signal loss compared to enfortumab mAb (100%)) [1] [%] | EC50 (nM) of nectin-4-eGFP signal loss [1] [nM] | EC50 (human nectin-4 on cells [4]) [nM] | Cytotoxicity IC50, NCI H1781 cells (human nectin-4 on cells [5]) [nM] | Cytotoxicity IC50, T24 Nectin-4 clone 108 cells (human nectin-4 on cells [5]) [nM] | Kd [6] [nM] | koff [6] [s⁻¹] | kon [6] [M⁻¹ s⁻¹] | Kd [7] [nM] | koff [7] [s⁻¹] | kon [7] [M⁻¹ s⁻¹] | Kd [8] [nM] | koff [8] [s⁻¹] | kon [8] [M⁻¹ s⁻¹] | other results
B1 | 97 | 2.13 | 0.06 |  |  |  |  |  |  |  |  |  |  |  | % of enfortumab (Average Max MFI) (human nectin-4 on cells [2]): 100%; Average Max MFI (human nectin-4 on cells [2]): 91000 MFI; EC50 (human nectin-4 on cells [2]): 0.05 nM; % of enfortumab (Average Max MFI) (human nectin-4 on cells [3]): 100%; Average Max MFI (human nectin-4 on cells [3]): 1.1e+06 MFI; EC50 (human nectin-4 on cells [3]): 0.11 nM
B2 | 125 | 2.48 |  | 0.0572 | 0.088 | 48.7 | 0.0338 | 694000 | 42.1 | 0.0524 | 1.25e+06 | 34.4 | 0.0165 | 482000 | 
B3 | 126 | 2.61 |  | 0.0543 | 0.0801 |  |  |  | 39.2 | 0.0464 | 1.18e+06 | 73.1 | 0.0296 | 404000 | Kd [9]: 41.2 nM; koff [9]: 0.0243 s⁻¹; kon [9]: 591000 M⁻¹ s⁻¹; Kd [10]: 37.6 nM; koff [10]: 0.0212 s⁻¹; kon [10]: 564000 M⁻¹ s⁻¹
B4 | 113 | 1.43 | 0.05 |  |  |  |  |  |  |  |  |  |  |  | % of enfortumab (Average Max MFI) (human nectin-4 on cells [2]): 95.7%; Average Max MFI (human nectin-4 on cells [2]): 87000 MFI; EC50 (human nectin-4 on cells [2]): 0.06 nM; % of enfortumab (Average Max MFI) (human nectin-4 on cells [3]): 87.2%; Average Max MFI (human nectin-4 on cells [3]): 920000 MFI; EC50 (human nectin-4 on cells [3]): 0.19 nM
B5 | 132 | 1.96 | 0.05 | 0.0473 | 0.07 | 21 | 0.0214 | 1.02e+06 | 19.8 | 0.02 | 1.01e+06 | 108 | 0.0753 | 695000 | 
B6 | 150 | 2.3 |  | 0.0981 | 0.0729 |  |  |  | 83.9 | 0.026 | 310000 | 180 | 0.0453 | 252000 | Kd [9]: 142 nM; koff [9]: 0.0402 s⁻¹; kon [9]: 283000 M⁻¹ s⁻¹; Kd [10]: 72.5 nM; koff [10]: 0.0308 s⁻¹; kon [10]: 424000 M⁻¹ s⁻¹
B7 | 136 | 2.68 |  | 0.0553 | 0.0825 | 1.03 | 0.000437 | 424000 | 0.986 | 0.000426 | 432000 | 5.28 | 0.000903 | 171000 | 
B8 | 112 | 2.8 |  | 0.0657 | 0.0994 | 3.94 | 0.00346 | 878000 | 3.1 | 0.0033 | 1.06e+06 | 31.3 | 0.0199 | 636000 | 
